The source of these data is US20080254507A1.

The target of this test is envelope glycoprotein derived from T-tropic HIV-1 (gp120, gp41) (HIV-1 (T-tropic)). Put plainly: cell-based or functional assay.

As to “His-tagged actinohivin monomer fusion protein (from UniProt Q9KWN0 47-160)”, the concentration that inhibit 50% of syncytium formation (IC50) turned out to be 0.58. With “His-tagged actinohivin dimer fusion protein (from UniProt Q9KWN0 47-160)”, the concentration that inhibit 50% of syncytium formation (IC50) came out at 0.235.
